Tested on: Bacillus subtilis
Test: cleaved RNA product abundance (RNA/gDNA barcode ratio) relative to median wild-type variant (ratio to wild type); higher = more accumulation of the downstream cleavage product
Settings: cleavage site: cggR-gapA (positions -7 to +36 mutated)
Description: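 MPRA in B. subtilis. Mutagenized RNase Y cleavage-site regions (9% mutation rate) were inserted into a barcoded reporter mRNA (truncated aprE or tetM). Cells were grown in LB at 37°C to OD600 0.3. The cleaved RNA isoform was gel-purified and its barcodes counted; the RNA:gDNA barcode ratio was normalised to the median wild-type variant, and the median over barcodes is reported per variant. The printed sequence is the variable window only; the reporter flanks are not printed.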

[1] = experiment (reporter, strain, medium): exp 2b: truncated aprE reporter, strain BJT200
[2] = experiment (reporter, strain, medium): exp 4a: truncated aprE reporter, strain BJT201 with 2% xylose (RNase J1 expressed)

| Sequence | cleaved RNA product abundance [1] | cleaved RNA product abundance [2] |
| --- | --- | --- |
| ACAGACGAAGGAGCCGCAAAGAAATTATTAAGGGATGAATAATCCCTCATTATAAATATCTCTCACTTATTTAAA | 0.197 | 0.514 |
| ACAGACGAAGGAGCCGCAAAGAAATTATTAAGGGATGAATAATCCCTCCATATAAATATCTCTCACTTATTTAAA |  | 0.338 |
| ACAGACGAAGGAGCCGCAAAGAAATTATTAAGGGATGAATAATCCCTCGATATAAATATCTCTCACTTATTTAAA |  | 0.395 |
| ACAGACGAAGGAGCCGCAAAGAAATTATTAAGGGATGAATAATCCCTCTATATAAATATCTCTCACTTATTTAAA | 0.418 | 0.319 |
| ACAGACGAAGGAGCCGCAAAGAAATTATTAAGGGATGAATAATCCCTGAATATAAATATCTCTCACTTATTTAAA | 0.49 | 0.548 |
| ACAGACGAAGGAGCCGCAAAGAAATTATTAAGGGATGAATAATCCCTTAATATAAATATCTCTCACTTATTTAAA |  | 0.451 |
| ACAGACGAAGGAGCCGCAAAGAAATTATTAAGGGATGAATAATCCGTCAATATAAATATCTCTCACTTATTTAAA | 0.192 | 0.261 |
| ACAGACGAAGGAGCCGCAAAGAAATTATTAAGGGATGAATAATCCTTCAATATAAATATCTCTCACTTATTTAAA |  | 0.674 |
| ACAGACGAAGGAGCCGCAAAGAAATTATTAAGGGATGAATAATCGCTCAATATAAATATCTCTCACTTATTTAAA |  | 0.101 |
| ACAGACGAAGGAGCCGCAAAGAAATTATTAAGGGATGAATAATCTCTCAATATAAATATCTCTCACTTATTTAAA |  | 0.476 |
| ACAGACGAAGGAGCCGCAAAGAAATTATTAAGGGATGAATAATGCCTCAATATAAATATCTCTCACTTATTTAAA | 0.172 | 0.132 |
| ACAGACGAAGGAGCCGCAAAGAAATTATTAAGGGATGAATAATTCCTCAATATAAATATCTCTCACTTATTTAAA | 0.457 | 0.415 |
| ACAGACGAAGGAGCCGCAAAGAAATTATTAAGGGATGAATACTCCCTCAATATAAATATCTCTCACTTATTTAAA | 0.416 |  |
| ACAGACGAAGGAGCCGCAAAGAAATTATTAAGGGATGAATAGTCCCTCAATATAAATATCTCTCACTTATTTAAA |  | 0.937 |
| ACAGACGAAGGAGCCGCAAAGAAATTATTAAGGGATGAATATTCCCTCAATATAAATATCTCTCACTTATTTAAA |  | 0.595 |
| ACAGACGAAGGAGCCGCAAAGAAATTATTAAGGGATGAATGATCCCTCAATATAAATATCTCTCACTTATTTAAA |  | 0.661 |
| ACAGACGAAGGAGCCGCAAAGAAATTATTAAGGGATGAATTATCCCTCAATATAAATATCTCTCACTTATTTAAA | 0.539 | 0.711 |
| ACAGACGAAGGAGCCGCAAAGAAATTATTAAGGGATGACTAATCCCTCAATATAAATATCTCTCACTTATTTAAA | 0.453 | 0.573 |
| ACAGACGAAGGAGCCGCAAAGAAATTATTAAGGGATGACTAATCTCTCAATATAAATATCTCTCACTTATTTAAA |  | 0.582 |
| ACAGACGAAGGAGCCGCAAAGAAATTATTAAGGGATGATTAATCCCTCAATATAAATATCTCTCACTTATTTAAA | 0.816 | 0.599 |

| Sequence | cleaved RNA product abundance [1] | cleaved RNA product abundance [2] |
| --- | --- | --- |
| ACAGACGAAGGAGCCGCAAAGAAATTATTAAGGGATGGATAATCCCTCAATATAAATATCTCTCACTTATTTAAA |  | 0.62 |
| ACAGACGAAGGAGCCGCAAAGAAATTATTAAGGGATGTATAATCCCTCAATATAAATATCTCTCACTTATTTAAA | 0.711 | 0.789 |
| ACAGACGAAGGAGCCGCAAAGAAATTATTAAGGGATTAATAATCCCTCAATATAAATATCTCTCACTTATTTAAA | 0.978 | 0.912 |
| ACAGACGAAGGAGCCGCAAAGAAATTATTAAGGGCTGAATAATCCCTCAATATAAATATCTCTCACTTATTTAAA |  | 0.498 |
| ACAGACGAAGGAGCCGCAAAGAAATTATTAAGGGGTGAATAATCCCTCAATATAAATATCTCTCACTTATTTAAA | 0.541 | 0.734 |
| ACAGACGAAGGAGCCGCAAAGAAATTATTAAGGGTTGAATAATCCCTCAATATAAATATCTCTCACTTATTTAAA |  | 0.365 |
| ACAGACGAAGGAGCCGCAAAGAAATTATTAAGGTATGAATAATCCCTCAATATAAATATCTCTCACTTATTTAAA | 0.122 | 0.105 |
| ACAGACGAAGGAGCCGCAAAGAAATTATTAAGTGATGAATAATCCCTCAAAATAAATATCTCTCACTTATTTAAA | 0.117 | 0.0994 |
| ACAGACGAAGGAGCCGCAAAGAAATTATTAAGTGATGAATAATCCCTCAATATAAATATCTCTCACTTATTTAAA | 0.107 | 0.125 |
| ACAGACGAAGGAGCCGCAAAGAAATTATTAATGAATGAATAATCCCTCAATATAAATATCTCTCACTTATTTAAA |  | 0.152 |
| ACAGACGAAGGAGCCGCAAAGAAATTATTAATGGATGAATAATCCCTCAATATAAATATCTCTCACTTATTTAAA | 0.122 | 0.169 |
| ACAGACGAAGGAGCCGCAAAGAAATTATTAATGTATGAATAATCCCTCAATATAAATATCTCTCACTTATTTAAA | 0.117 | 0.111 |
| ACAGACGAAGGAGCCGCAAAGAAATTATTACGGGATGAATAATCCCTCAATATAAATATCTCTCACTTATTTAAA |  | 0.396 |
| ACAGACGAAGGAGCCGCAAAGAAATTATTAGGGGATGAATAATCCCTCAATATAAATATCTCTCACTTATTTAAA |  | 0.586 |
| ACAGACGAAGGAGCCGCAAAGAAATTATTAGGGGATGAATAATCCCTCCATATAAATATCTCTCACTTATTTAAA | 0.188 |  |
| ACAGACGAAGGAGCCGCAAAGAAATTATTATGGGATGAATAATCCCTCAATATAAATATCTCTCACTTATTTAAA |  | 0.277 |
| ACAGACGAAGGAGCCGCAAAGAAATTATTCAGGGATGAATAATCCCTCAATATAAATATCTCTCACTTATTTAAA | 0.575 | 0.747 |
| ACAGACGAAGGAGCCGCAAAGAAATTATTTAGGGATGAATAATCCCTCAATATAAATATCTCTCACTTATTTAAA |  | 0.718 |
| ACAGACGAAGGAGCCGCAAAGAAATTCTTAAGGGATGAATAATCCCTCAATATAAATATCTCTCACTTATTTAAA | 0.186 | 0.199 |
| ACAGACGAAGGAGCCGCAAAGAAATTGTTAAGGGATGAATAATCCCTCAATATAAATATCTCTCACTTATTTAAA | 0.377 |  |

| Sequence | cleaved RNA product abundance [1] | cleaved RNA product abundance [2] |
| --- | --- | --- |
| ACAGACGAAGGAGCCGCAAAGAAATTTTTAAGGGATGAATAATCCCTCAATATAAATATCTCTCACTTATTTAAA | 0.206 | 0.264 |
| ACAGACGAAGGAGCCGCAAAGAACATATTAAGGGATGAATAATCCCTCAATATAAATATCTCTCACTTATTTAAA | 0.607 | 0.499 |
| ACAGACGAAGGAGCCGCAAAGAACCTATTAAGGGATGAATAATCCCTCAATATAAATATCTCTCACTTATTTAAA | 0.18 | 0.309 |
| ACAGACGAAGGAGCCGCAAAGAACGTATTAAGGGATGAATAATCCCTCAATATAAATATCTCTCACTTATTTAAA |  | 0.724 |
| ACAGACGAAGGAGCCGCAAAGAACTAATTAAGGGATGAATAATCCCTCAATATAAATATCTCTCACTTATTTAAA |  | 0.321 |
| ACAGACGAAGGAGCCGCAAAGAACTGATTAAGGGATGAATAATCCCTCAATATAAATATCTCTCACTTATTTAAA |  | 0.238 |
| ACAGACGAAGGAGCCGCAAAGAACTTAATAAGGAATGAATAATCCCTCAATATAAATATCTCTCACTTATTTAAA |  | 0.133 |
| ACAGACGAAGGAGCCGCAAAGAACTTAATAAGGGATGAATAATCCCTCAATATAAATATCTCTCACTTATTTAAA |  | 0.167 |
| ACAGACGAAGGAGCCGCAAAGAACTTACTAAGGGATGAATAATCCCTCAATATAAATATCTCTCACTTATTTAAA |  | 0.237 |
| ACAGACGAAGGAGCCGCAAAGAACTTATAAAGGGACGAATAATCCCTCAATATAAATATCTCTCACTTATTTAAA |  | 0.162 |
| ACAGACGAAGGAGCCGCAAAGAACTTATAAAGGGATGAATAATCCCTCAATATAAATATCTCTCACTTATTTAAA | 0.24 | 0.263 |
| ACAGACGAAGGAGCCGCAAAGAACTTATCAAGGGATGAATAATCCCTCAATATAAATATCTCTCACTTATTTAAA |  | 0.32 |
| ACAGACGAAGGAGCCGCAAAGAACTTATGAAGGGATGAATAATCCCTCAATATAAATATCTCTCACTTATTTAAA | 0.274 |  |
| ACAGACGAAGGAGCCGCAAAGAACTTATTAAAGGATGAATAATCCCTCAATATAAATATCTCTCACTTATTTAAA | 0.166 |  |
| ACAGACGAAGGAGCCGCAAAGAACTTATTAACGGATGAATAATCCCTCAATATAAATATCTCTCACTTATTTAAA |  | 0.112 |
| ACAGACGAAGGAGCCGCAAAGAACTTATTAAGAGATGAATAATCCCTCAATATAAATATCTCTCACTTATTTAAA | 0.092 | 0.147 |
| ACAGACGAAGGAGCCGCAAAGAACTTATTAAGCGATGAATAATCCCTCAATATAAATATCTCTCACTTATTTAAA | 0.0844 | 0.157 |
| ACAGACGAAGGAGCCGCAAAGAACTTATTAAGGAATGAATAATCCCTCAATATAAATATCTCTCACTTATTTAAA |  | 0.117 |
